Reverse-splicing fitness data for 83 variants are collected here from the RNAGym collection of RNA variant scans (doi:10.1093/molbev/msab373).

Sequences and labels used below:
B1: Azoarcus group I ribozyme (parent)
chain: GUGCCUUGCGCCGGGAAACCACGCAAGGGAUGGUGUCAAAUUCGGCGAAACCUAAGCGCCCGCCCGGGCGUAUGGCAACGCCGAGCCAAGCUUCGGCGCCUGCGCCGAUGAAGGUGUAGAGACUAGACGGCACCCACCUAAGGCAAACGCUAUGGUGAAGGCAUAGUCCAGGGAGUGGCGAAAGUCACACAAACCGG

The data set covers variants of B1. Put plainly: reverse-splicing fitness (ratio to wild type); higher = more active; in vitro selection; Mg2+ level not given. The method in brief:
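An in vitro group I ribozyme library with randomized positions was T7-transcribed and gel-purified. In triplicate, 10 pmol RNA in EPPS pH 7.5 was reacted with 50 pmoles of a 30-nt RNA substrate for 1 h at 37 °C across several added MgCl2 levels (1–48 mM), then stopped with EDTA. Products were reverse transcribed from a substrate-complementary primer, PCR-amplified and sequenced (HiSeq 4000). Fitness is a variant's read proportion after selection over that before, normalised to wild type.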
Regarding C82A A111G C169A, the reverse-splicing fitness came out at 0.00855.
Regarding C82A A111G C169G, the reverse-splicing fitness was 0.00926.
On to C82A A111G C169U, for which the reverse-splicing fitness was 0.0132.
In the case of C82A A111G C150A C169G it was 0.00926; in that of C82A A111G C150A C169U, 0.0114; in that of C82A A111G C150A C169A, 0.0109.
For C82A A111U A120C A145G C169G U176A the value was 0.0259; for C82A A111U A120C A145G C169G U176G, 0.00647.
For C82A A111U A120C A145G C169G U176C the value was 0.0355.
As for C82A A111U A120C A145G C150A C169A U176C, the reverse-splicing fitness was determined as 0.0279.
In the case of C82A A111U A120C A145G C150A C169A U176G it was 0.0115.
With C82A A111U A120C A145G C150A C169A U176A, the reverse-splicing fitness was 0.0221.
In the case of C82A A111U A120C A145C C150A C169U it was 0.0111.
For C82A A111U A120C A145C C150A C169A the value was 0.01; for C82A A111U A120C A145C C150A C169G, 0.00947; for C82A A111G C150U, 0.205.
For C82A A111G C150G the value was 0.024; for C82A A111G C150A, 0.0352; for C82A A111U A120C A145G C150A U176C, 0.0241.
On to C82A A111U A120C A145G C150A U176A, for which the reverse-splicing fitness is 0.0105.
For C82A A111U A120C A145G C150A U176G the value was 0.00997; for C82A A111U A120C A145C C150A C169U U176A, 0.0157.
For C82A A111U A120C A145C C150A C169U U176G the value was 0.00621; for C82A A111U A120C A145C C150A C169U U176C, 0.0124; for C82A A111U A120C A145C C150U C169A, 0.00907.
For C82A A111U A120C A145C C150U C169U the value was 0.0105.
For C82A A111U A120C A145C C150U C169G, the reverse-splicing fitness came out at 0.00912.
For C82A A111U A120C A145C C169U U176G, the reverse-splicing fitness is 0.00416.
In the case of C82A A111U A120C A145C C169U U176C it was 0.0149; in that of C82A A111U A120C A145C C169U U176A, 0.0168.
For C82A A111U A120C C150A C169A the value was 0.0122; for C82A A111U A120C C150A C169G, 0.0103; for C82A A111U A120C C150A C169U, 0.0129.
Consider C82A A111U A120C A145U C150U, for which the reverse-splicing fitness is 0.0216.
For C82A A111U A120C A145U C150A the value was 0.0107.
In the case of C82A A111U A120C A145U C150G it was 0.00883; in that of C82A A111G C150U C169U U176A, 0.0148.
As for C82A A111G C150U C169U U176C, the reverse-splicing fitness came to 0.0136.
For C82A A111G C150U C169U U176G the value was 0.00623; for C82A A111U A120C A145G C150G, 0.0101; for C82A A111U A120C A145G C150A, 0.013.
Regarding C82A A111U A120C A145G C150U, the reverse-splicing fitness was determined as 0.0255.
In the case of C82A A111U A120C A145C C150G C169A U176A it was 0.00999; in that of C82A A111U A120C A145C C150G C169A U176C, 0.011; in that of C82A A111U A120C A145C C150G C169A U176G, 0.0073.
As for C82A A111G A145U C150U U176C, the reverse-splicing fitness stood at 0.166.
In the case of C82A A111G A145U C150U U176A it was 0.106; in that of C82A A111G A145U C150U U176G, 0.0305; in that of C82A A111U A120C C150G C169U U176G, 0.0062.
In the case of C82A A111U A120C C150G C169U U176C it was 0.011.
In the case of C82A A111U A120C C150G C169U U176A it was 0.00757; in that of C82A A111U A120C A145G C150G C169A U176C, 0.016; in that of C82A A111U A120C A145G C150G C169A U176A, 0.0164.
Consider C82A A111U A120C A145G C150G C169A U176G, for which the reverse-splicing fitness came out at 0.00887.
In the case of C82A A111U A120C A145U C169A, the reverse-splicing fitness came to 0.00981.
For C82A A111U A120C A145U C169G the value was 0.0114; for C82A A111U A120C A145U C169U, 0.0129.
For C82A A111G A145U C150G U176C the value was 0.0181; for C82A A111G A145U C150G U176G, 0.0047; for C82A A111G A145U C150G U176A, 0.00973.
As to C82A A111U A120C A145C C150G U176G, the reverse-splicing fitness was 0.0032.
In the case of C82A A111U A120C A145C C150G U176A, the reverse-splicing fitness was 0.00531.
For C82A A111U A120C A145C C150G U176C the value was 0.00974; for C82A A111U A120C C150G U176A, 0.00671; for C82A A111U A120C C150G U176C, 0.0098.
For C82A A111G A145U C150U C169G U176A, the reverse-splicing fitness is 0.0131.
In the case of C82A A111G A145U C150U C169G U176C it was 0.015; in that of C82A A111G A145U C150U C169G U176G, 0.00627.
Consider C82A A111U A120C C150A U176A, for which the reverse-splicing fitness turned out to be 0.0129.
In the case of C82A A111U A120C C150A U176G it was 0.00881; in that of C82A A111U A120C C150A U176C, 0.0239.
In the case of C82A A111U A120C A145G U176A, the reverse-splicing fitness was 0.0187.
For C82A A111U A120C A145G U176C the value was 0.0361.
For C82A A111U A120C A145G U176G the value was 0.00731; for C82A A111G A145U C169A U176C, 0.0104.
C82A A111G A145U C169A U176G: the reverse-splicing fitness amounted to 0.00504.
For C82A A111G A145U C169A U176A the value was 0.0131.
For C82A A111G C150A C169G U176G the value was 0.00691.
With C82A A111G C150A C169G U176A, the reverse-splicing fitness is 0.0221.
For C82A A111G C150A C169G U176C the value was 0.0249; for C82A A111G C150A C169U U176G, 0.00815.
Consider C82A A111G C150A C169U U176C, for which the reverse-splicing fitness is 0.014.
For C82A A111G C150A C169U U176A the value was 0.0172.
